Results: PMC6405639 (2019)

Target: Y2R_cysteine_deficient_eYFP (in HEK293 cells) (human, UniProt P49146 1-381, C58^1.40A | C103^2.57S | C151^3.53S | C272^6.39A | C316^7.44A | C342^7.70A)
Sequence (P49146 other isoform, or with tags, fused parts or gaps with the stated changes): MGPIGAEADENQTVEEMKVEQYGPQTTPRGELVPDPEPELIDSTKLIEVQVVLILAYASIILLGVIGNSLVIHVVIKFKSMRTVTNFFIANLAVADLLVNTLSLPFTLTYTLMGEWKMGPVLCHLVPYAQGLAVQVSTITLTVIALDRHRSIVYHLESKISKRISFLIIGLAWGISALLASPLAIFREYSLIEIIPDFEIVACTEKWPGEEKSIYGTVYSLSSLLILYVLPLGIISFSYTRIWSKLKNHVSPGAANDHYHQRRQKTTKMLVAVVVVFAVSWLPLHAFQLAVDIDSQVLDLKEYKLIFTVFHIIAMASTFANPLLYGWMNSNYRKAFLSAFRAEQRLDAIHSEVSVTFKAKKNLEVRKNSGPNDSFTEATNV

- IC50: 8.2 nM
B1: Porcine neuropeptide Y (peptide)
peptide: not shown
modifications: C-terminal amide
